Consider six molecules from US20240325564A1, “PHARMACEUTICAL COMPOSITION CONTAINING ANTI-TROP2 ANTIBODY DRUG CONJUGATE AND ITS APPLICATION” (JIANGSU HENGRUI PHARMACEUTICALS CO., LTD., priority 2021, published 2024).

Test in all cases: cell-based or functional assay
Assay [1] has as its target T1, TROP-2 expressed on cells (UniProt P09758 27-323, limits assumed).
T1 sequence (looked up): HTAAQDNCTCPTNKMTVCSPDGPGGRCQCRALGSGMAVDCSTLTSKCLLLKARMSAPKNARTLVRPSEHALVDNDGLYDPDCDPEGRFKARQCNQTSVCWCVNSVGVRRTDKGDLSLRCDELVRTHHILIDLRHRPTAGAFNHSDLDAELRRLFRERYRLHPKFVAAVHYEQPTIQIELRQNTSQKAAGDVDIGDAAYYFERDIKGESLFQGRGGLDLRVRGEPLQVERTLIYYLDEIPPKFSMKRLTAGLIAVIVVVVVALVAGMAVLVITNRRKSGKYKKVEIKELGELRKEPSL

In assay [2] the target is T1, TROP-2 expressed on cells. The source holds these as a separate data set.
For assay [3], the target named is T1, TROP-2 expressed on cells. The source holds these as a separate data set.

B1: PD3 anti-TROP2 antibody (antibody, human IgG1, kappa, V domains shown)
VH: EVQLVQSGSELKKPGASVKVSCKASGYTFTNYGMNWVKQAPGQGLKWMGWINTYTGEPTYTQDFKGRFAFSLDTSVSTAYLQISSLKAEDTAVYYCARGGFGSSYWYFDVWGQGTLVTVSS
VL: DIQLTQSPSSLSASVGDRVSITCKASQDVSIAVAWYQQKPGKAPKLLIYSASYRYTGVPDRFSGSGSGTDFTLTISSLQPEDFAVYYCQQHYITPLTFGAGTKVEIKR
Turning to B1, in assay [1], the “EC50, antibody endocytic activity (DT3C cell killing, CTG)” value (shortened to “EC50, antibody endocytic activity”) worked out at 0.15 nM and the “Emax, antibody endocytic activity (DT3C cell killing, CTG)” value (“Emax, antibody endocytic activity” for short) amounted to 99.1%.

B2: ADC-5 (PD3-58) (antibody, human IgG1, kappa, V domains shown)
VH: EVQLVQSGSELKKPGASVKVSCKASGYTFTNYGMNWVKQAPGQGLKWMGWINTYTGEPTYTQDFKGRFAFSLDTSVSTAYLQISSLKAEDTAVYYCARGGFGSSYWYFDVWGQGTLVTVSS
VL: DIQLTQSPSSLSASVGDRVSITCKASQDVSIAVAWYQQKPGKAPKLLIYSASYRYTGVPDRFSGSGSGTDFTLTISSLQPEDFAVYYCQQHYITPLTFGAGTKVEIKR
modifications: compound 58 (linker-drug) conjugated after TCEP reduction of the antibody; average n=3.88 per antibody (UV-Vis); sites not stated
For the molecule B2, in assay [2], the “EC50, killing activity on Colo205 cells (second parallel assay)” value amounted to 25.6 nM; the “EC50, killing activity on DMS53 cells (second parallel assay)” value came to 25.7 nM; the “EC50, killing activity on FaDu cells (second parallel assay)” value worked out at 0.14 nM; the “EC50, killing activity on HCC827 cells (second parallel assay)” value came out at 0.13 nM.

B3: ADC-7 (hRS7-9-A) (antibody, human IgG1, kappa, V domains shown)
VH: QVQLQQSGSELKKPGASVKVSCKASGYTFTNYGMNWVKQAPGQGLKWMGWINTYTGEPTYTDDFKGRFAFSLDTSVSTAYLQISSLKADDTAVYFCARGGFGSSYWYFDVWGQGSLVTVSS
VL: DIQLTQSPSSLSASVGDRVSITCKASQDVSIAVAWYQQKPGKAPKLLIYSASYRYTGVPDRFSGSGSGTDFTLTISSLQPEDFAVYYCQQHYITPLTFGAGTKVEIKR
modifications: compound 9-A (linker-drug) conjugated after TCEP reduction of the antibody; average n=3.72 per antibody (UV-Vis); sites not stated
Turning to B3, in assay [3], the “EC50, killing activity on Colo205(++) cells” value amounted to 52.8 nM; the “EC50, killing activity on DMS53(++) cells” value stood at 72.9 nM; the “EC50, killing activity on FaDu(+++) cells” value worked out at 0.31 nM; the “EC50, killing activity on HCC827(+++) cells” value turned out to be 0.18 nM. Besides, in assay [3], the “Emax, killing activity on Colo205(++) cells” value was 99.5%; the “Emax, killing activity on DMS53(++) cells” value came to 88.7%; the “Emax, killing activity on FaDu(+++) cells” value was 101%; the “Emax, killing activity on HCC827(+++) cells” value amounted to 89.3%. Besides, the “Emax, killing activity on SK-OV-3(+) cells” value in assay [3] came to 66.1%.

B4: TINA antibody (constructed according to WO2015098099A1) (antibody, human IgG1, kappa, V domains shown)
VH: QVQLVQSGAEVKKPGASVKVSCKASGYTFTTAGMQWVRQAPGQGLEWMGWINTHSGVPKYAEDFKGRVTISADTSTSTAYLQLSSLKSEDTAVYYCARSGFGSSYWYFDVWGQGTLVTVSS
VL: DIQMTQSPSSLSASVGDRVTITCKASQDVSTAVAWYQQKPGKAPKLLIYSASYRYTGVPSRFSGSGSGTDFTLTISSLQPEDFAVYYCQQHYITPLTFGQGTKLEIKR
As for B4, in assay [1], the “EC50, antibody endocytic activity” value is 0.18 nM and the “Emax, antibody endocytic activity” value was found to be 98.7%.

B5: ADC-4 (TINA-58) (antibody, human IgG1, kappa, V domains shown)
VH: QVQLVQSGAEVKKPGASVKVSCKASGYTFTTAGMQWVRQAPGQGLEWMGWINTHSGVPKYAEDFKGRVTISADTSTSTAYLQLSSLKSEDTAVYYCARSGFGSSYWYFDVWGQGTLVTVSS
VL: DIQMTQSPSSLSASVGDRVTITCKASQDVSTAVAWYQQKPGKAPKLLIYSASYRYTGVPSRFSGSGSGTDFTLTISSLQPEDFAVYYCQQHYITPLTFGQGTKLEIKR
modifications: compound 58 (linker-drug) conjugated after TCEP reduction of the antibody; average n=3.99 per antibody (UV-Vis); sites not stated
For B5, in assay [3], the “EC50, killing activity on Colo205(++) cells” value was determined as 59.8 nM; the “EC50, killing activity on DMS53(++) cells” value came out at 75.6 nM; the “EC50, killing activity on FaDu(+++) cells” value was 0.53 nM; the “EC50, killing activity on HCC827(+++) cells” value came out at 0.27 nM. In assay [3], the “Emax, killing activity on Colo205(++) cells” value was found to be 99.7%; the “Emax, killing activity on DMS53(++) cells” value is 89.8%; the “Emax, killing activity on FaDu(+++) cells” value was found to be 101%; the “Emax, killing activity on HCC827(+++) cells” value was determined as 88.2%. In assay [3], the “Emax, killing activity on SK-OV-3(+) cells” value was 49.1%.

B6: hRS7 (control anti-TROP-2 antibody, constructed according to WO03074566) (antibody, human IgG1, kappa, V domains shown)
VH: QVQLQQSGSELKKPGASVKVSCKASGYTFTNYGMNWVKQAPGQGLKWMGWINTYTGEPTYTDDFKGRFAFSLDTSVSTAYLQISSLKADDTAVYFCARGGFGSSYWYFDVWGQGSLVTVSS
VL: DIQLTQSPSSLSASVGDRVSITCKASQDVSIAVAWYQQKPGKAPKLLIYSASYRYTGVPDRFSGSGSGTDFTLTISSLQPEDFAVYYCQQHYITPLTFGAGTKVEIKR
On to B6, for which, in assay [1], the “EC50, antibody endocytic activity” value stood at 0.18 nM and the “Emax, antibody endocytic activity” value was found to be 98.5%.
